Measurements from article PMC10527347 (Journal of molecular biology, 2023).
Like-named read-outs stand apart in the source and are kept apart here. Blank lines part the entries; values can stand above or below the binder they belong to.

Experiments:
Hsp90Ec N347C [1] = molecular target: T1, Hsp90Ec N347C (E. coli, UniProt P0A6Z3 1-624, N347C); assay: cross-linking
Hsp90Ec K199C [2] = molecular target: T2, Hsp90Ec K199C (E. coli, UniProt P0A6Z3 1-624, K199C); assay: cross-linking
Hsp90Ec wild-type [3] = molecular target: T3, Hsp90Ec wild-type (E. coli, UniProt P0A6Z3 1-624); assay: cross-linking
Hsp90Ec N350C = Hsp90Ec N350C (E. coli, UniProt P0A6Z3 1-624, N350C); assay: cross-linking
Hsp90Ec N347C/D80N = Hsp90Ec N347C/D80N (E. coli, UniProt P0A6Z3 1-624, N347C | D80N); assay: cross-linking
Hsp90Ec N347C [4] = molecular target: T1, Hsp90Ec N347C; assay: cross-linking; remark: listed apart in the source
cross-linking = molecular target: the molecule itself; assay: cross-linking
Hsp90Ec K354C = Hsp90Ec K354C (E. coli, UniProt P0A6Z3 1-624, K354C); assay: cross-linking
Hsp90Ec K45C = Hsp90Ec K45C (E. coli, UniProt P0A6Z3 1-624, K45C); assay: cross-linking
Hsp90Ec K71C = Hsp90Ec K71C (E. coli, UniProt P0A6Z3 1-624, K71C); assay: cross-linking
Hsp90Ec K238C = Hsp90Ec K238C (E. coli, UniProt P0A6Z3 1-624, K238C); assay: cross-linking
Hsp90Ec K199C [5] = molecular target: T2, Hsp90Ec K199C; assay: cross-linking; remark: listed apart in the source
Hsp90Ec K103C = Hsp90Ec K103C (E. coli, UniProt P0A6Z3 1-624, K103C); assay: cross-linking
Hsp90Ec K99C = Hsp90Ec K99C (E. coli, UniProt P0A6Z3 1-624, K99C); assay: cross-linking
biotin-labeled Ydj1 = molecular target: T4, biotin-labeled Ydj1 (S. cerevisiae, UniProt P25491 1-409, biotin label (site not stated)); assay: pull-down
T4 sequence (looked up): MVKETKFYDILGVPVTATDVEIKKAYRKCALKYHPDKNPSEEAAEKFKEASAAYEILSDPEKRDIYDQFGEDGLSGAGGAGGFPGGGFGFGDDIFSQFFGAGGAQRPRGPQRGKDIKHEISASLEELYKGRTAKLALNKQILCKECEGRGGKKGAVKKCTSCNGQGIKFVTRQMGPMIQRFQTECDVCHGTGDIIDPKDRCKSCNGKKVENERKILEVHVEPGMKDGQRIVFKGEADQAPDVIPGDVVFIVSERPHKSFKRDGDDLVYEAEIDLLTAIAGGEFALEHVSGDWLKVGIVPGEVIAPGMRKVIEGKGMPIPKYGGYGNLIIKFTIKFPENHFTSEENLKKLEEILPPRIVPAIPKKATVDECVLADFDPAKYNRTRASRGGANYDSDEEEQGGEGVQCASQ

Hsp90Ec wild-type [6] = molecular target: T3, Hsp90Ec wild-type; assay: BLI

- binding result (Hsp90Ec N347C [1]): binds
B1: CbpA A44C (natural protein, E. coli, UniProt P36659 1-306, looked up)
chain: MELKDYYAIMGVKPTDDLKTIKTAYRRLARKYHPDVSKEPDAECRFKEVAEAWEVLSDEQRRAEYDQMWQHRNDPQFNRQFHHGDGQSFNAEDFDDIFSSIFGQHARQSRQRPATRGHDIEIEVAVFLEETLTEHKRTISYNLPVYNAFGMIEQEIPKTLNVKIPAGVGNGQRIRLKGQGTPGENGGPNGDLWLVIHIAPHPLFDIVGQDLEIVVPVSPWEAALGAKVTVPTLKESILLTIPPGSQAGQRLRVKGKGLVSKKQTGDLYAVLKIVMPPKPDENTAALWQQLADAQSSFDPRKDWGKA

- binding result (Hsp90Ec K199C [2]): binds
- binding result (Hsp90Ec wild-type [3]): binds
B2: CbpA wild-type (natural protein, E. coli, UniProt P36659 1-306, looked up)
chain: MELKDYYAIMGVKPTDDLKTIKTAYRRLARKYHPDVSKEPDAEARFKEVAEAWEVLSDEQRRAEYDQMWQHRNDPQFNRQFHHGDGQSFNAEDFDDIFSSIFGQHARQSRQRPATRGHDIEIEVAVFLEETLTEHKRTISYNLPVYNAFGMIEQEIPKTLNVKIPAGVGNGQRIRLKGQGTPGENGGPNGDLWLVIHIAPHPLFDIVGQDLEIVVPVSPWEAALGAKVTVPTLKESILLTIPPGSQAGQRLRVKGKGLVSKKQTGDLYAVLKIVMPPKPDENTAALWQQLADAQSSFDPRKDWGKA

- binding result (Hsp90Ec N350C): binds
- binding result (Hsp90Ec N347C/D80N): binds
- binding result (Hsp90Ec K199C [2]): binds
- binding result (Hsp90Ec N347C [4]): binds
B3: CbpA E51C (natural protein, E. coli, UniProt P36659 1-306, looked up)
chain: MELKDYYAIMGVKPTDDLKTIKTAYRRLARKYHPDVSKEPDAEARFKEVACAWEVLSDEQRRAEYDQMWQHRNDPQFNRQFHHGDGQSFNAEDFDDIFSSIFGQHARQSRQRPATRGHDIEIEVAVFLEETLTEHKRTISYNLPVYNAFGMIEQEIPKTLNVKIPAGVGNGQRIRLKGQGTPGENGGPNGDLWLVIHIAPHPLFDIVGQDLEIVVPVSPWEAALGAKVTVPTLKESILLTIPPGSQAGQRLRVKGKGLVSKKQTGDLYAVLKIVMPPKPDENTAALWQQLADAQSSFDPRKDWGKA
- binding result (cross-linking): binds

- binding result (Hsp90Ec N347C [1]): binds
B4: CbpA S57C (natural protein, E. coli, UniProt P36659 1-306, looked up)
chain: MELKDYYAIMGVKPTDDLKTIKTAYRRLARKYHPDVSKEPDAEARFKEVAEAWEVLCDEQRRAEYDQMWQHRNDPQFNRQFHHGDGQSFNAEDFDDIFSSIFGQHARQSRQRPATRGHDIEIEVAVFLEETLTEHKRTISYNLPVYNAFGMIEQEIPKTLNVKIPAGVGNGQRIRLKGQGTPGENGGPNGDLWLVIHIAPHPLFDIVGQDLEIVVPVSPWEAALGAKVTVPTLKESILLTIPPGSQAGQRLRVKGKGLVSKKQTGDLYAVLKIVMPPKPDENTAALWQQLADAQSSFDPRKDWGKA

- binding result (Hsp90Ec N347C [1]): binds
- binding result (Hsp90Ec K354C): binds
- binding result (Hsp90Ec K45C): binds
- binding result (Hsp90Ec K71C): binds
- binding result (Hsp90Ec K238C): binds
- binding result (Hsp90Ec K199C [5]): binds
- binding result (Hsp90Ec K103C): binds
- binding result (Hsp90Ec K99C): binds
B5: CbpA K22C (natural protein, E. coli, UniProt P36659 1-306, looked up)
chain: MELKDYYAIMGVKPTDDLKTICTAYRRLARKYHPDVSKEPDAEARFKEVAEAWEVLSDEQRRAEYDQMWQHRNDPQFNRQFHHGDGQSFNAEDFDDIFSSIFGQHARQSRQRPATRGHDIEIEVAVFLEETLTEHKRTISYNLPVYNAFGMIEQEIPKTLNVKIPAGVGNGQRIRLKGQGTPGENGGPNGDLWLVIHIAPHPLFDIVGQDLEIVVPVSPWEAALGAKVTVPTLKESILLTIPPGSQAGQRLRVKGKGLVSKKQTGDLYAVLKIVMPPKPDENTAALWQQLADAQSSFDPRKDWGKA

- fold change in interaction, with L2 against without L2 (biotin-labeled Ydj1): ~2 fold
B6: Hsp82 wild-type (natural protein)
chain: not shown

- Kd (Hsp90Ec wild-type [6]): 3.6 ± 0.3 µM
B7: biotin-labeled DnaJ (natural protein, E. coli, UniProt P08622 1-376, looked up)
chain: MAKQDYYEILGVSKTAEEREIRKAYKRLAMKYHPDRNQGDKEAEAKFKEIKEAYEVLTDSQKRAAYDQYGHAAFEQGGMGGGGFGGGADFSDIFGDVFGDIFGGGRGRQRAARGADLRYNMELTLEEAVRGVTKEIRIPTLEECDVCHGSGAKPGTQPQTCPTCHGSGQVQMRQGFFAVQQTCPHCQGRGTLIKDPCNKCHGHGRVERSKTLSVKIPAGVDTGDRIRLAGEGEAGEHGAPAGDLYVQVQVKQHPIFEREGNNLYCEVPINFAMAALGGEIEVPTLDGRVKLKVPGETQTGKLFRMRGKGVKSVRGGAQGDLLCRVVVETPVGLNERQKQLLQELQESFGGPTGEHNSPRSKSFFDGVKKFFDDLTR
modifications: biotin label (site not stated)
